Source: patent publication US20180117174A1 (GANYMED PHARMACEUTICALS, published 2018)

Tests used:
[1] = biological target: T1, human claudin 18 splice variant 2 (CLDN18.2) (human); experiment: flow cytometry, HEK293 cells stably expressing CLDN18.2; APC-conjugated secondary antibody; binding assay 1
T1 construct: also called claudin 18 isotype 2

[2] = biological target: T1, human claudin 18 splice variant 2 …; experiment: cell-based or functional assay
[3] = biological target: T1, human claudin 18 splice variant 2 …; experiment: flow cytometry on HEK293~CLDN18.2 cells, antibody up to 20 µg/ml
Description: Binding was analyzed by flow cytometry at antibody concentrations up to 20 μg/ml. Data points (n=2 replicates) are depicted as mean±SD.
(§1) 100 μl of the cell suspension per well (correspond to 2×10⁵ cells/well) were transferred to a round bottom 96-well microtiter plate. […] The cells were centrifuged for 1 min at 1500 rpm and the supernatant was discarded. […] After incubation, 100 μl FACS buffer were added to each sample, the cells were centrifuged for 1 min at 1500 rpm and the supernatant was discarded. The washing step with FACS buffer was repeated twice. Finally, the cells were resuspended in 100 μl FACS buffer and binding was determined using a BD FACS Array Bioanalyzer.
The binding specificity was analyzed by flow cytometry using HEK293 transfectants engineered to overexpress human CLDN18.2 or the highly homologous protein human CLDN18.1.

[4] = biological target: T1, human claudin 18 splice variant 2 …; experiment: flow cytometry on NCI-N87~CLDN18.2 cells, antibody up to 20 µg/ml
Description: as §1

[5] = biological target: T1, human claudin 18 splice variant 2 …; experiment: flow cytometry on BxPC-3~CLDN18.2 cells, second assay
[6] = biological target: T1, human claudin 18 splice variant 2 …; experiment: flow cytometry (Table 6); APC-conjugated secondary antibody; binding assay 1
Description: as §1
(§2) Antibodies marked with the same number (1 or 2) were tested in the same binding assay.

[7] = biological target: T1, human claudin 18 splice variant 2 …; experiment: flow cytometry, HEK293 cells stably expressing CLDN18.2; APC-conjugated secondary antibody; binding assay 2
[8] = biological target: T1, human claudin 18 splice variant 2 …; experiment: flow cytometry on NUGC-4 10cE8 cells (endogenous CLDN18.2), second assay
[9] = biological target: T1, human claudin 18 splice variant 2 …; experiment: cell-based or functional assay; remark: listed apart in the source
[10] = biological target: T1, human claudin 18 splice variant 2 …; experiment: flow cytometry, HEK293 cells stably expressing CLDN18.2; ProteinL-FITC detection; binding assay 4
[11] = biological target: T1, human claudin 18 splice variant 2 …; experiment: flow cytometry on BxPC-3~CLDN18.2 cells, antibody up to 20 µg/ml
Description: as §1

[12] = biological target: T1, human claudin 18 splice variant 2 …; experiment: cell-based or functional assay; remark: listed apart in the source
[13] = biological target: T1, human claudin 18 splice variant 2 …; experiment: flow cytometry on NUGC-4 10cF7-5 sort 3a cells (endogenous CLDN18.2), second assay
[14] = biological target: T1, human claudin 18 splice variant 2 …; experiment: flow cytometry (Table 6); ProteinL-FITC detection; binding assay 2
Description: as §1, §2

[15] = biological target: T1, human claudin 18 splice variant 2 …; experiment: flow cytometry, HEK293 cells stably expressing CLDN18.2; APC-conjugated secondary antibody; binding assay 3
Description: as §1

[16] = biological target: T1, human claudin 18 splice variant 2 …; experiment: flow cytometry (Table 6); ProteinL-FITC detection; binding assay 2; normalized to IMAB362
[17] = biological target: T1, human claudin 18 splice variant 2 …; experiment: flow cytometry on NUGC-4 10cF7-5 sort 3a cells (endogenous CLDN18.2), antibody up to 20 µg/ml
Description: as §1

[18] = biological target: T1, human claudin 18 splice variant 2 …; experiment: flow cytometry on NUGC-4 10cE8 cells (endogenous CLDN18.2), antibody up to 20 µg/ml
Description: as §1
Binding properties were tested at different antibody concentrations in a range of 0.1 to 20 μg/ml (FIG. 4, Table 8).

[19] = biological target: T1, human claudin 18 splice variant 2 …; experiment: cell-based or functional assay; remark: listed apart in the source

Row | Binder | Cell viability EC50 [ng/ml], Fab-ZAP endocytosis assay on HEK293~CLDN18.2 cells [2] [ng/mL] | EC50 [3] [µg/mL] | EC50 [4] [µg/mL] | EC50 [5] [µg/mL] | EC50 [8] [µg/mL] | ADCC EC50 [ng/ml], NUGC-4 10cF7_5 sort3a p3151#10 cells, PBMC of Donor 1 [9] [ng/mL] | ADCC EC50 [ng/ml], NUGC-4 10cF7_5 sort3a p3151#10 cells, PBMC of Donor 2 [9] [ng/mL] | EC50 [11] [µg/mL] | CDC EC50 [ng/ml], KATO-III FGF-BP#12 adM p3151#25 cells [12] [ng/mL] | CDC EC50 [ng/ml], NUGC-4 10cF7_5 sort3a p3151#10 cells [12] [ng/mL] | EC50 [13] [µg/mL] | EC50 [14] [µg/mL] | further results
1 | IMAB362 (antibody, V domains shown, Chimeric human IgG1 kappa; CDR1 at 45-52); also called chim mAb362; chim mAB362) VH: QVQLQQPGAELVRPGASVKLSCKASGYTFTSYWINWVKQRPGQGLEWIGNIYPSDSYTNYNQKFKDKATLTVDKSSSTAYMQLSSPTSEDSAVYYCTRSWRGNSFDYWGQGTTLTVSS VL: DIVMTQSPSSLTVTAGEKVTMSCKSSQSLLNSGNQKNYLTWYQQKPGQPPKLLIYWASTRESGVPDRFTGSGSGTDFTLTISSVQAEDLAVYYCQNDYSYPFTFGSGTKLEIKR | 11 | 1.12 | 0.31 | 0.113 | 3.67 | 1230 | 142 | 0.104 | 19300 | 28000 | 2.38 | 1.24 | EC50 [1]: 0.52 µg/mL; Cell viability EC50 [ng/ml], Fab-ZAP endocytosis assay on HEK293~CLDN18.2 cells (second assay) [2]: 13 ng/mL; EC50 [6]: 0.584 µg/mL; Max. binding [MFI] [6]: 18500 MFI; EC50 [7]: 0.584 µg/mL; EC50 [10]: 1.24 µg/mL; Max. binding [MFI] [10]: 5320 MFI; EC50 [15]: 0.652 µg/mL; Max. binding [MFI] [15]: 7950 MFI
2 | chim mAB294 (antibody, V domains shown) VH: QIQLVQSGPELKKPGETVKISCKASGYTFTNYGMNWVKQAPGKGLKWMGWINTNTGEPTYAEEFKGRFAFSLETSASTAYLQINNLKNEDTATYFCARLGFGNAMDYWGQGTSVTVSS VL: DIVMTQSPSSLTVTAGEKVTMSCKSSQSLLNSGNQKNYLTWYQQKPGQPPKLLIYWASTRESGVPDRFTGSGSGTDFTLTISSVQAEDLAVYYCQNDYSYPLTFGAGTKLELKR | 10 |  |  |  |  |  |  |  |  |  |  | 5.7 | EC50 normalized [%] [16]: 459%; Cell viability EC50 [%] normalized to IMAB362, Fab-ZAP endocytosis assay [2]: 91%; Max. viability reduction normalized [%], Fab-ZAP endocytosis assay [2]: 86%
3 | IMAB362-vcMMAE (antibody, human IgG1, kappa, V domains shown, vcMMAE (Val-Cit linker) coupled to sulfhydryl groups set on lysine amines with 2-iminothiolane; drug to antibody ratio 4.5; sites not stated, also called MMAE-conjugated IMAB362) VH: QVQLQQPGAELVRPGASVKLSCKASGYTFTSYWINWVKQRPGQGLEWIGNIYPSDSYTNYNQKFKDKATLTVDKSSSTAYMQLSSPTSEDSAVYYCTRSWRGNSFDYWGQGTTLTVSS VL: DIVMTQSPSSLTVTAGEKVTMSCKSSQSLLNSGNQKNYLTWYQQKPGQPPKLLIYWASTRESGVPDRFTGSGSGTDFTLTISSVQAEDLAVYYCQNDYSYPFTFGSGTKLEIKR |  | 1.59 | 0.103 | 0.261 | 5.46 | 1080 | 275 | 0.183 | 7240 | 28300 | 4.05 |  | EC50 [17]: 2.52 µg/mL; EC50 [18]: 2.83 µg/mL; EC50 [ng/ml] of reduction of cell viability (XTT, 72 h), BxPC-3~CLDN18.2 cells [19]: 48 ng/mL; EC50 [ng/ml] of reduction of cell viability (XTT, 72 h), BxPC-3~CLDN18.2 cells, second assay [19]: 43 ng/mL; EC50 [ng/ml] of reduction of cell viability (XTT, 72 h), NCI-N87~CLDN18.2 cells, second assay [19]: 180 ng/mL; EC50 [ng/ml] of reduction of cell viability (XTT, 72 h), NUGC-4 10cE8 cells [19]: 631 ng/mL; EC50 [ng/ml] of reduction of cell viability (XTT, 72 h), NUGC-4 10cF7-5 sort 3a cells [19]: 338 ng/mL
